For 94 variants, protein stability index results are on record in the supplement of paper PMC10567573.

B1: CASP6 (parent)
chain: TCADRDNLTRRFSDLGFEVKCFND
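Further: lentivirally expressed fusions sorted by FACS into six bins by GFP to DsRed ratio, PSI derived from sequencing read proportions per bin multiplied by bin number.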

The data set covers variants of B1. Nature of the data set: protein stability index of a GFP-peptide fusion (GPS, HEK-293T) (PSI 1-6); higher = more stable. Particulars: c terminus: a fixed tail appended.
For the variant TCADRDNLTYRFSDLGFEVKCFND [R10Y], the protein stability index amounted to 2.65.

For TCADRDNLTVRFSDLGFEVKCFND [R10V], the protein stability index stood at 3.2.

Take TCADRDNLTSRFSDLGFEVKCFND [R10S]: the protein stability index is 3.29.

Take TCADRDNLTCRFSDLGFEVKCFND [R10C]: the protein stability index was 2.59.

On to TCADRDNLTIRFSDLGFEVKCFND [R10I], for which the protein stability index was found to be 2.48.

In the case of TCADRDNLTKRFSDLGFEVKCFND [R10K], the protein stability index was 3.75.

Turning to TCADRDNLTNRFSDLGFEVKCFND [R10N], the protein stability index was 3.56.

TCADRDNLTFRFSDLGFEVKCFND [R10F]: the protein stability index was determined as 2.98.

Turning to TCADRDNLTLRFSDLGFEVKCFND [R10L], the protein stability index is 3.07.

TCADRDNLTPRFSDLGFEVKCFND [R10P]: the protein stability index turned out to be 3.39.

For the variant TCADRDNLTWRFSDLGFEVKCFND [R10W], the protein stability index turned out to be 2.17.

For TCADRDNLTARFSDLGFEVKCFND [R10A], the protein stability index worked out at 3.59.

Regarding TCADRDNLTDRFSDLGFEVKCFND [R10D], the protein stability index came out at 3.96.

On to TCADRDNLTQRFSDLGFEVKCFND [R10Q], for which the protein stability index amounted to 3.33.

Consider TCADRDNLTTRFSDLGFEVKCFND [R10T], for which the protein stability index turned out to be 3.61.

Take TCADRDNLTHRFSDLGFEVKCFND [R10H]: the protein stability index turned out to be 3.16.

Take TCADRDNLTERFSDLGFEVKCFND [R10E]: the protein stability index came to 3.83.

Consider TCADRDNLTGRFSDLGFEVKCFND [R10G], for which the protein stability index came to 3.48.

As for TCADRDNLTMRFSDLGFEVKCFND [R10M], the protein stability index stood at 2.83.

In the case of TCAERDNLTRRFSDLGFEVKCFND [D4E], the protein stability index is 3.74.

Consider TCAPRDNLTRRFSDLGFEVKCFND [D4P], for which the protein stability index was determined as 2.75.

For TCAFRDNLTRRFSDLGFEVKCFND [D4F], the protein stability index is 2.78.

In the case of TCAWRDNLTRRFSDLGFEVKCFND [D4W], the protein stability index stood at 3.54.

In the case of TCACRDNLTRRFSDLGFEVKCFND [D4C], the protein stability index was 1.58.

For TCAYRDNLTRRFSDLGFEVKCFND [D4Y], the protein stability index worked out at 2.44.

Regarding TCATRDNLTRRFSDLGFEVKCFND [D4T], the protein stability index came out at 2.64.

With TCAKRDNLTRRFSDLGFEVKCFND [D4K], the protein stability index was found to be 3.37.

For TCAQRDNLTRRFSDLGFEVKCFND [D4Q], the protein stability index was 3.36.

In the case of TCALRDNLTRRFSDLGFEVKCFND [D4L], the protein stability index came out at 2.21.

Turning to TCAGRDNLTRRFSDLGFEVKCFND [D4G], the protein stability index was determined as 3.28.

Take TCAMRDNLTRRFSDLGFEVKCFND [D4M]: the protein stability index worked out at 2.08.

In the case of TCASRDNLTRRFSDLGFEVKCFND [D4S], the protein stability index was found to be 3.02.

Consider TCANRDNLTRRFSDLGFEVKCFND [D4N], for which the protein stability index came out at 3.17.

Turning to TCAARDNLTRRFSDLGFEVKCFND [D4A], the protein stability index is 2.61.

Turning to TCARRDNLTRRFSDLGFEVKCFND [D4R], the protein stability index worked out at 2.95.

Take TCAHRDNLTRRFSDLGFEVKCFND [D4H]: the protein stability index was 2.96.

On to TCAIRDNLTRRFSDLGFEVKCFND [D4I], for which the protein stability index worked out at 2.24.

As to TCAVRDNLTRRFSDLGFEVKCFND [D4V], the protein stability index came out at 3.05.

In the case of TCADRMNLTRRFSDLGFEVKCFND [D6M], the protein stability index worked out at 3.09.

Consider TCADRPNLTRRFSDLGFEVKCFND [D6P], for which the protein stability index amounted to 3.68.

Turning to TCADRWNLTRRFSDLGFEVKCFND [D6W], the protein stability index is 2.09.

As for TCADRFNLTRRFSDLGFEVKCFND [D6F], the protein stability index was 2.51.

As to TCADRTNLTRRFSDLGFEVKCFND [D6T], the protein stability index was 3.2.

On to TCADRINLTRRFSDLGFEVKCFND [D6I], for which the protein stability index is 2.96.

On to TCADRCNLTRRFSDLGFEVKCFND [D6C], for which the protein stability index came out at 2.43.

As to TCADRSNLTRRFSDLGFEVKCFND [D6S], the protein stability index came out at 3.01.

For TCADRYNLTRRFSDLGFEVKCFND [D6Y], the protein stability index stood at 2.44.

Consider TCADRENLTRRFSDLGFEVKCFND [D6E], for which the protein stability index is 3.56.

As to TCADRNNLTRRFSDLGFEVKCFND [D6N], the protein stability index was found to be 2.29.

As to TCADRRNLTRRFSDLGFEVKCFND [D6R], the protein stability index was found to be 3.16.

For the variant TCADRQNLTRRFSDLGFEVKCFND [D6Q], the protein stability index is 3.44.

Turning to TCADRANLTRRFSDLGFEVKCFND [D6A], the protein stability index amounted to 2.76.

For the variant TCADRLNLTRRFSDLGFEVKCFND [D6L], the protein stability index was found to be 3.06.

Consider TCADRGNLTRRFSDLGFEVKCFND [D6G], for which the protein stability index is 3.47.

As for TCADRVNLTRRFSDLGFEVKCFND [D6V], the protein stability index was found to be 2.38.

As for TCADRKNLTRRFSDLGFEVKCFND [D6K], the protein stability index was found to be 2.75.

Turning to TCADRHNLTRRFSDLGFEVKCFND [D6H], the protein stability index turned out to be 3.08.

For the variant TCCDRDNLTRRFSDLGFEVKCFND [A3C], the protein stability index stood at 2.84.

With TCEDRDNLTRRFSDLGFEVKCFND [A3E], the protein stability index amounted to 3.65.

As for TCPDRDNLTRRFSDLGFEVKCFND [A3P], the protein stability index came to 4.03.

As for TCHDRDNLTRRFSDLGFEVKCFND [A3H], the protein stability index was 2.98.

TCTDRDNLTRRFSDLGFEVKCFND [A3T]: the protein stability index is 3.63.

For the variant TCNDRDNLTRRFSDLGFEVKCFND [A3N], the protein stability index was found to be 3.38.

For the variant TCMDRDNLTRRFSDLGFEVKCFND [A3M], the protein stability index worked out at 3.45.

For the variant TCLDRDNLTRRFSDLGFEVKCFND [A3L], the protein stability index stood at 3.14.

Take TCQDRDNLTRRFSDLGFEVKCFND [A3Q]: the protein stability index was 4.01.

Turning to TCYDRDNLTRRFSDLGFEVKCFND [A3Y], the protein stability index was 2.9.

Turning to TCIDRDNLTRRFSDLGFEVKCFND [A3I], the protein stability index was 3.21.

Take TCGDRDNLTRRFSDLGFEVKCFND [A3G]: the protein stability index was 3.38.

On to TCWDRDNLTRRFSDLGFEVKCFND [A3W], for which the protein stability index was 3.21.

On to TCSDRDNLTRRFSDLGFEVKCFND [A3S], for which the protein stability index came out at 3.64.

For the variant TCVDRDNLTRRFSDLGFEVKCFND [A3V], the protein stability index amounted to 3.52.

On to TCKDRDNLTRRFSDLGFEVKCFND [A3K], for which the protein stability index was determined as 3.7.

With TCDDRDNLTRRFSDLGFEVKCFND [A3D], the protein stability index was 3.96.

Take TCRDRDNLTRRFSDLGFEVKCFND [A3R]: the protein stability index is 2.97.

Regarding TCFDRDNLTRRFSDLGFEVKCFND [A3F], the protein stability index came out at 2.52.

With TCADRDNCTRRFSDLGFEVKCFND [L8C], the protein stability index came to 2.99.

With TCADRDNWTRRFSDLGFEVKCFND [L8W], the protein stability index came to 2.79.

In the case of TCADRDNYTRRFSDLGFEVKCFND [L8Y], the protein stability index was found to be 2.91.

As to TCADRDNQTRRFSDLGFEVKCFND [L8Q], the protein stability index was determined as 4.08.

In the case of TCADRDNHTRRFSDLGFEVKCFND [L8H], the protein stability index is 3.28.

Regarding TCADRDNRTRRFSDLGFEVKCFND [L8R], the protein stability index was found to be 4.07.

As to TCADRDNVTRRFSDLGFEVKCFND [L8V], the protein stability index is 3.37.

With TCADRDNPTRRFSDLGFEVKCFND [L8P], the protein stability index worked out at 3.52.

With TCADRDNITRRFSDLGFEVKCFND [L8I], the protein stability index worked out at 3.31.

On to TCADRDNATRRFSDLGFEVKCFND [L8A], for which the protein stability index worked out at 3.38.

For the variant TCADRDNETRRFSDLGFEVKCFND [L8E], the protein stability index turned out to be 4.42.

For the variant TCADRDNNTRRFSDLGFEVKCFND [L8N], the protein stability index turned out to be 2.38.

As for TCADRDNGTRRFSDLGFEVKCFND [L8G], the protein stability index came out at 3.66.

As for TCADRDNFTRRFSDLGFEVKCFND [L8F], the protein stability index was 2.45.

Consider TCADRDNDTRRFSDLGFEVKCFND [L8D], for which the protein stability index worked out at 4.06.

As to TCADRDNKTRRFSDLGFEVKCFND [L8K], the protein stability index turned out to be 3.6.

Turning to TCADRDNTTRRFSDLGFEVKCFND [L8T], the protein stability index stood at 3.49.

Regarding TCADRDNSTRRFSDLGFEVKCFND [L8S], the protein stability index was found to be 3.82.
